Assay results reported in paper PMC5589592, “Direct inhibition of STAT signaling by platinum drugs contributes to their anti-cancer activity” (Oncotarget, 2017).
Square brackets hold non-standard residues; d marks the D form. Ends that are not written are not given here. pY = N[C@@H](Cc1ccc(OP(=O)(O)O)cc1)C(=O)O

Biological target: T1, recombinant human STAT3, full-length, biotinylated through an N-terminal avi-tag (human, UniProt P40763 1-770, biotin on the avi-tag)
T1 construct: also called biotinylated STAT; full-length protein; not shown: avi-tag, N-terminal, kept
T1 sequence (P40763 whole entry): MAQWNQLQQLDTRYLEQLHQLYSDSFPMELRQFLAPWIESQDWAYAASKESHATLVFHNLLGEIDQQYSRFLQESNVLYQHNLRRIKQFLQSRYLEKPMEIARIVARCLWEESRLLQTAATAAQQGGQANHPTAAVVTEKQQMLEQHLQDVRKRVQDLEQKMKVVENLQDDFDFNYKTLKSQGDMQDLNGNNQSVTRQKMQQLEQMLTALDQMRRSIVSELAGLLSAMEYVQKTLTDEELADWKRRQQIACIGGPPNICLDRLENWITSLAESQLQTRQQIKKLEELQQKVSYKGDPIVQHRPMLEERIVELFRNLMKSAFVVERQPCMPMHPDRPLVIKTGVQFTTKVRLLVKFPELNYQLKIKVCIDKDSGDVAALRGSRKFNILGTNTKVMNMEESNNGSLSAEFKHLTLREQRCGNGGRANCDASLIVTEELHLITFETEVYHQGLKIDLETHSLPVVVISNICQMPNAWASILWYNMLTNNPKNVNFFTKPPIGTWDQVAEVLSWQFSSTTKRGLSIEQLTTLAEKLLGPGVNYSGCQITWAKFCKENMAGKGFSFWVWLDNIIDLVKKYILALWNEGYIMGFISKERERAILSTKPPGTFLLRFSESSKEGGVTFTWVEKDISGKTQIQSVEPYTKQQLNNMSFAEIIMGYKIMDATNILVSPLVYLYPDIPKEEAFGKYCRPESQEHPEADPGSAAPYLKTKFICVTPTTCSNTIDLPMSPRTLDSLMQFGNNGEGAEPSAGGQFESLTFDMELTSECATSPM
Test: AlphaScreen or HTRF; biotinylated STAT incubated 90 min with (or without) a platinum compound and FITC-pTyr peptide, then streptavidin-coated donor beads and anti-FITC acceptor beads; detection at 570 nm; cisplatin 1, 3, 10 or 30 uM inhibited the signal
Conditions: both partners purified

binding result: binds
B1: 5-carboxyfluorescein (FITC)-GpYLPQTV phospho-tyrosine peptide probe (STAT3) (peptide)
peptide: G[pY]LPQTV
modifications: not fully specified (N-terminus)
notes: pTyr peptide that corresponds with a STAT docking site of the upstream receptor; also called FITC-pTyr peptide; pTyr
